Measurements as given in patent US5656452A, “NF-ATp, ' a T lymphocyte DNA-binding protein” (President and Fellows of Harvard College, priority 1993, dated 1997).

Experiments:
[1] = target: T1, NF-ATp XS (464-aa recombinant fragment of murine NF-ATp) (Mus musculus, UniProt Q60591 SEQ:226-689); assay: EMSA; two complexes; self-competed by 200-fold excess; methylation interference shows GGAA core required; settings: label: 32P
T1 chain: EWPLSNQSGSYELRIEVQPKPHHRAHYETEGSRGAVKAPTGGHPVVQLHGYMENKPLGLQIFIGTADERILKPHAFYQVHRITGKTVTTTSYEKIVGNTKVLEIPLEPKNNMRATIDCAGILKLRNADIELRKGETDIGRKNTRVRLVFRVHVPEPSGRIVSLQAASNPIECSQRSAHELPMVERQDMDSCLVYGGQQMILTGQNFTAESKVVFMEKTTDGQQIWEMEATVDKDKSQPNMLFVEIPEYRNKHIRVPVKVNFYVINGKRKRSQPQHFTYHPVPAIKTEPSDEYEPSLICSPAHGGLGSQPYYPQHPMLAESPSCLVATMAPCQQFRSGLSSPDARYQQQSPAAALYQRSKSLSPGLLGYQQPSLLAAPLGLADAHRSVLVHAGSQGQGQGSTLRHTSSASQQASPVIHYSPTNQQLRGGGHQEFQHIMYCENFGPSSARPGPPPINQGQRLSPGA
Experimental: (§1) EMSAs were performed using 18 μl of renatured proteins in a 30 μl mix containing 4 mM Hepes, pH 7.4, 84 mM NaCl, 20 mM KCl, 0.08 mM EDTA, 9% glycerol, 0.7 mg/ml BSA, 17 μg/ml poly(dI:dC) and 0.125 ng of ^32P-labelled oligonucleotide. For competition assays, a 200-fold excess of unlabeled oligonucleotide was added to the reaction. The reactions were incubated for 15 minutes at room temperature followed by electrophoresis at 4° C. on 4% Tris/borate/EDTA/acrylamide gels. The NF-AT oligonucleotide used had the sequence GCCCAAAGAG-GAAAATTTGTTTCATACAG (SEQ ID NO:1), corresponding to the distal NF-AT site from the murine IL-2 promoter (nucleotides −295 to −267 relative to the transcription start site, (Serfling, E., Barthelmas, R., Pfeuffer, I., Schenk, B., Zarius, S., Swoboda, R., Mercurio, F., and Karin, M. (1989) *EMBO J.* 8, 465–473)). Oligonucleotides bearing mutations in the NF-AT site were as follows: M1, […] (SEQ ID NO:2); M2, […] […]
(§2) Figure 12: FIG. 12 is a photograph of an EMSA gel. Binding of a recombinant fragment of NF-AT_p (NF-AT_pXS) to target DNA and association of the recombinant NF-AT_p fragment with Fos and Jun proteins was evaluated. The binding of the recombinant fragment of murine NF-AT_p to the distal NF-AT site of the murine IL-2 promoter was assessed by EMSA in the presence or absence of a 200-fold excess of unlabelled competitor oligonucleotides as shown in Lane 1–5. […]

[2] = target: T2, NF-ATp (purified from Cl.7W2 T cells) (Mus musculus, UniProt Q60591 SEQ:1-890); assay: EMSA; purified 120 kDa protein, renatured from gel; settings: tags: native; label: 32P
T2 chain: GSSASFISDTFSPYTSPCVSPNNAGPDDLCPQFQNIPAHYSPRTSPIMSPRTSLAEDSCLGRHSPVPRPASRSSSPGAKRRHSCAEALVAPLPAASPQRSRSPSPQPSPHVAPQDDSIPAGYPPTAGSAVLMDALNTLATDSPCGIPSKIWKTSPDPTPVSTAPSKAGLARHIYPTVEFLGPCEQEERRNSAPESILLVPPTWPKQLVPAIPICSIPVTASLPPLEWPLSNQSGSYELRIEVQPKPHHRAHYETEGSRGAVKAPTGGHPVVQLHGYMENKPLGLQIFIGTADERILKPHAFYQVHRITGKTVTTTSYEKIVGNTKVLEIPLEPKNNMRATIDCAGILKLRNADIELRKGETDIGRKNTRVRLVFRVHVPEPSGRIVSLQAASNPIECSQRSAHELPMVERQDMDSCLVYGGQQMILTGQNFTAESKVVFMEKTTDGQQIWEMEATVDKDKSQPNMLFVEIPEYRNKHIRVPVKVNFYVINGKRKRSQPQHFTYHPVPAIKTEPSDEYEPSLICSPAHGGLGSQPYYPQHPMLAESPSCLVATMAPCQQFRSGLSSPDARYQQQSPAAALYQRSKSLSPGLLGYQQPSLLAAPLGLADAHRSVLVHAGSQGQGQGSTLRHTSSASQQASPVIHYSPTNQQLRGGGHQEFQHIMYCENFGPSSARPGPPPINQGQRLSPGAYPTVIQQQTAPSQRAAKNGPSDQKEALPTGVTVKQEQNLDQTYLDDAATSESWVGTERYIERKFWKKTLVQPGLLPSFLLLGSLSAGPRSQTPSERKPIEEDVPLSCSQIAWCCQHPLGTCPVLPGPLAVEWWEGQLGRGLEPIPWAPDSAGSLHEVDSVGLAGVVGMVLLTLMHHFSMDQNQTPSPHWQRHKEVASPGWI
Experimental: EMSAs were performed using 18 μl of renatured proteins in a 30 μl mix containing 4 mM Hepes, pH 7.4, 84 mM NaCl, 20 mM KCl, 0.08 mM EDTA, 9% glycerol, 0.7 mg/ml BSA, 17 μg/ml poly(dI:dC) and 0.125 ng of ^32P-labelled oligonucleotide. For competition assays, a 200-fold excess of unlabeled oligonucleotide was added to the reaction. The reactions were incubated for 15 minutes at room temperature followed by electrophoresis at 4° C. on 4% Tris/borate/EDTA/acrylamide gels. The NF-AT oligonucleotide used had the sequence GCCCAAAGAG-GAAAATTTGTTTCATACAG (SEQ ID NO:1), corresponding to the distal NF-AT site from the murine IL-2 promoter (nucleotides −295 to −267 relative to the transcription start site, (Serfling, E., Barthelmas, R., Pfeuffer, I., Schenk, B., Zarius, S., Swoboda, R., Mercurio, F., and Karin, M. (1989) *EMBO J.* 8, 465–473)). Oligonucleotides bearing mutations in the NF-AT site were as follows: M1, […] (SEQ ID NO:2); M2, […] (SEQ ID NO:3); M3, […] […]
Figure 8: FIG. 8 is a photograph of an EMSA gel showing an analysis of NF-AT_p by renaturation of NF-AT_p activity following purification of the protein using SDS-polyacrylamide gel electrophoresis. […] After electrophoresis, the gel was sliced, proteins were eluted from gel slices and renatured, and the fractionated proteins were evaluated in an EMSA for their ability to bind to the NF-AT site of the murine IL-2 promoter.

[3] = target: c-Fos + c-Jun (UniProt P12841;P17325 P12841:1-380,P17325:1-334); assay: EMSA; no NF-ATp present; settings: tags: full-length; label: 32P
c-Fos + c-Jun, sequence (P12841 whole entry, chain 1 of 2, the tested form may be a part): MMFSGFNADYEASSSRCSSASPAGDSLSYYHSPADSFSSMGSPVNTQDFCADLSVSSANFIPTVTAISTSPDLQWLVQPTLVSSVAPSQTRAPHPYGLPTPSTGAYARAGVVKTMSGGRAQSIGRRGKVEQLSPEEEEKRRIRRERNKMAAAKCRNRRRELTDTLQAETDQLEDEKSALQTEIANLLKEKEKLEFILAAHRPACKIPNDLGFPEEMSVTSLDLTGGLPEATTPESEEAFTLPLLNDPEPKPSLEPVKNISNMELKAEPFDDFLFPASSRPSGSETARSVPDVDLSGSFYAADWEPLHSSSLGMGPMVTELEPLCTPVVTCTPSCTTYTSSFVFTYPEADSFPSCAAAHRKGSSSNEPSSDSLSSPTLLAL
c-Fos + c-Jun, sequence (P17325 whole entry, chain 2 of 2, the tested form may be a part): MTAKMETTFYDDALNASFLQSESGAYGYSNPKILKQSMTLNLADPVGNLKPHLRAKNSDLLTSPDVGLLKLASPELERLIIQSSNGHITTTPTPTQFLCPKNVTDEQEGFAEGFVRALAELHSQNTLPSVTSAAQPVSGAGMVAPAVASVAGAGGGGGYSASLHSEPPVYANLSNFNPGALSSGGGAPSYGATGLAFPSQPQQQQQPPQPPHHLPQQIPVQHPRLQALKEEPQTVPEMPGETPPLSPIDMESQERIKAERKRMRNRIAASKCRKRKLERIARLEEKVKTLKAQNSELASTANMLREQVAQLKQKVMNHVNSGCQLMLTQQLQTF
Experimental: (§3) Figure 12: FIG. 12 is a photograph of an EMSA gel. Binding of a recombinant fragment of NF-AT_p (NF-AT_pXS) to target DNA and association of the recombinant NF-AT_p fragment with Fos and Jun proteins was evaluated. The binding of the recombinant fragment of murine NF-AT_p to the distal NF-AT site of the murine IL-2 promoter was assessed by EMSA in the presence or absence of a 200-fold excess of unlabelled competitor oligonucleotides as shown in Lane 1–5. The arrows indicate two DNA-protein complexes formed with NF-AT_pXS. Full-length recombinant c-Fos and c-Jun proteins were included in the same binding reactions, as shown in Lanes 7–9. The open arrows indicate Jun—Jun-NF-AT_pXS complexes, while the closed arrows indicate Fos-Jun-NF-AT_pXS complexes.

[4] = target: NF-ATp XS + c-Jun (UniProt Q60591;P17325 Q60591:400-863,P17325:1-334); assay: EMSA; slower-migrating Jun-Jun-NF-ATp complex; settings: tags: His6 on NF-ATp XS; full-length c-Jun; label: 32P
NF-ATp XS + c-Jun, sequence (P17325 whole entry, one chain of several): as the sequence (P17325 whole entry, chain 2 of 2, the tested form may be a part) above
Experimental: as §3

[5] = target: NF-ATp (T cell) + c-Fos + c-Jun (UniProt Q60591;P12841;P17325 Q60591:1-927,P12841:1-380,P17325:1-334); assay: EMSA; upper complex with partially purified NF-ATp; not seen with c-Fos only; settings: tags: native NF-ATp with recombinant c-Fos and c-Jun; label: 32P
NF-ATp (T cell) + c-Fos + c-Jun, sequence (Q60591 whole entry, chain 1 of 3, the tested form may be a part): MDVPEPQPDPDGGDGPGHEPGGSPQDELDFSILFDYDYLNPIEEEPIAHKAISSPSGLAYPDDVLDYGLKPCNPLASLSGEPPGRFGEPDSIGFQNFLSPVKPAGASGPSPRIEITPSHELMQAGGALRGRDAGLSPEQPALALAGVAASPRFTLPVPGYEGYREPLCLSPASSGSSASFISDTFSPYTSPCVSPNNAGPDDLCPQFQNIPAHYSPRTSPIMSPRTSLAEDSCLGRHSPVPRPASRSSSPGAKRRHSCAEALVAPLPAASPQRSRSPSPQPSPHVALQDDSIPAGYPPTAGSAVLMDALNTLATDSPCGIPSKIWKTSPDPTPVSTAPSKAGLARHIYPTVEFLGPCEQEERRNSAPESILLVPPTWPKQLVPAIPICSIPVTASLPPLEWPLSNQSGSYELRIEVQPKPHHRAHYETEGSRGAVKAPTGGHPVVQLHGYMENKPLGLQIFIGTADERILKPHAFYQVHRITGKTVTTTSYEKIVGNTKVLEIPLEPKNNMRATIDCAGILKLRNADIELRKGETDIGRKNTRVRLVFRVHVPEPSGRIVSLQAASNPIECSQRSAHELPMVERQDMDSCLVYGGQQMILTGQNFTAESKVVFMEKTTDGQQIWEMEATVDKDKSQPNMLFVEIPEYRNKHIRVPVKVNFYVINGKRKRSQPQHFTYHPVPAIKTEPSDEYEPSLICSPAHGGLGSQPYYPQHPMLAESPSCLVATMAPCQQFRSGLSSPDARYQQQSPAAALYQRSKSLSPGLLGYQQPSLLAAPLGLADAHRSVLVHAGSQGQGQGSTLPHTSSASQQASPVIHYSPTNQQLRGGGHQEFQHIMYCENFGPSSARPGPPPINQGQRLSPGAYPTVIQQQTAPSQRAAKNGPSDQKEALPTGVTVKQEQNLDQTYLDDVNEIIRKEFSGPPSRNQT
NF-ATp (T cell) + c-Fos + c-Jun, sequence (P12841 whole entry, chain 2 of 3, the tested form may be a part): as the sequence (P12841 whole entry, chain 1 of 2, the tested form may be a part) above
NF-ATp (T cell) + c-Fos + c-Jun, sequence (P17325 whole entry, chain 3 of 3, the tested form may be a part): as the sequence (P17325 whole entry, chain 2 of 2, the tested form may be a part) above
Experimental: Figure 7: FIG. 7 is a photograph of an EMSA gel showing the results of an EMSA. […] Partially purified NF-AT_p was incubated with labeled oligonucleotide corresponding to the distal NF-AT site of the murine IL-2 promoter, either alone (lanes 1, 7, 13), with full length or truncated (T) recombinantly produced c-Fos and c-Jun proteins (lanes 2–5 and 8–11, respectively) or with an equivalent concentration of bovine serum albumin. Lane 5 contained 50% more c-Fos and c-Jun compared to lane 4. Lanes 11–13 contain half the amount of NF-AT_p compared to lanes 1–10. […] Bound complexes were separated from free probe by EMSA. The position of free probe, of the lower (NF-AT_p) complex and upper (NF-AT_p-Fos-Jun) complex are indicated.

[6] = target: NF-ATp XS + c-Fos + c-Jun (UniProt Q60591;P12841;P17325 Q60591:400-863,P12841:1-380,P17325:1-334); assay: EMSA; Fos-Jun-NF-ATp complex; competed by AP-1 oligonucleotide; c-Fos alone does not associate; settings: tags: His6 on NF-ATp XS; full-length c-Fos and c-Jun; label: 32P
NF-ATp XS + c-Fos + c-Jun, sequence (P12841 whole entry, chain 2 of 2): as the sequence (P12841 whole entry, chain 1 of 2, the tested form may be a part) above
NF-ATp XS + c-Fos + c-Jun, sequence (P17325 whole entry, chain 3 of 2): as the sequence (P17325 whole entry, chain 2 of 2, the tested form may be a part) above
Experimental: as §3

[7] = target: T1, NF-ATp XS (464-aa recombinant fragment …); assay: competition; 200-fold excess does not compete
Experimental: as §1, §2

[8] = target: T1, NF-ATp XS (464-aa recombinant fragment …); assay: competition; 200-fold excess competes as strongly as wild type
Experimental: as §1, §2

B1: NF-AT oligonucleotide (distal NF-AT site, murine IL-2 promoter) (dsDNA)
DNA 1: GCCCAAAGAGGAAAATTTGTTTCATACAG
DNA 2: CTGTATGAAACAAATTTTCCTCTTTGGGC
- binding result [1]: binds
- binding result [2]: binds
- binding result [3]: no binding
- binding result [4]: binds
- binding result [5]: binds
- binding result [6]: binds

B2: M3 (dsDNA)
DNA 1: GCCCAAAGACCTTAATTTGTTTCATACAG
DNA 2: CTGTATGAAACAAATTAAGGTCTTTGGGC
- binding result [7]: no binding

B3: M1 (dsDNA)
DNA 1: GCCCAAAGAGGAAAATTTGTTTATATCAG
DNA 2: CTGATATAAACAAATTTTCCTCTTTGGGC
- binding result [8]: binds
